Measurements as given in paper PMC5687611.

Experiments:
[1] = molecular target: L3C7-hPD-L1 phage clone (displayed on M13 phage) (human) (UniProt Q9NZQ7); assay: ELISA; inhibition phage ELISA: phage displaying hPD-L1 variants incubated with 1.6 µM non-biotinylated soluble hPD-1 for 1 h before adding to plates with captured biotinylated hPD-1
[2] = molecular target: L3B3-hPD-L1 phage clone (displayed on M13 phage) (human) (UniProt Q9NZQ7); assay: as above

inhibition rate at 1.6 µM soluble hPD-1 [1]: 82.6%
inhibition rate at 1.6 µM soluble hPD-1 [2]: 86.7%
Substance: soluble non-biotinylated hPD-1 (residues 33-150, C93S) (from UniProt Q15116 33-150) (domain or fragment)
